# Experimental data as given in US20250161220A1, “LYMPHATIC DELIVERY OF NANOPARTICLES TO TREAT NEURODEGENERATIVE, NEUROLOGICAL, AND EYE CONDITIONS” (The Cleveland Clinic Foundation, priority 2022, published 2025).
# Assay: Catalytic activity of recombinant human CAT versus bovine CAT
# Assay type: biochemical
# Conditions: data normalized to per mg
# Description: In certain embodiments, the nanoparticles are formulated with antioxidant enzymes. For example, the following may be employed for generating SOD and catalase nanoparticles. […] In certain embodiments, SOD is an enzyme that catalyzes the conversion of superoxide to H2O2 and catalase is an enzyme that further degrades H2O2 to molecular oxygen and water. The SOD and catalase for use in the methods and compositions of the invention can be obtained from a variety of sources. In a particular embodiment, the SOD and/or catalase are mammalian SOD and/or mammalian catalase, and/or recombinant catalase. As used herein “mammal” and/or “mammalian” refer to a primate, canine, feline, rodent, and the like. Specific examples of mammalian SOD and/or catalase include human, pig, dog, cat, horse, cow, sheep, goat, rabbit, guinea pig, rats and mice SOD and/or catalase.
molecule,measurement,value
"Human CAT: Recombinant human catalase obtained from BioVision or Creative BioMart (protein, UniProt P04040 2-527, looked up) Catalase: ADSRDPASDQMQHWKEQRAAQKADVLTTGAGNPVGDKLNVITVGPRGPLLVQDVVFTDEMAHFDRERIPERVVHAKGAGAFGYFEVTHDITKYSKAKVFEHIGKKTPIAVRFSTVAGESGSADTVRDPRGFAVKFYTEDGNWDLVGNNTPIFFIRDPILFPSFIHSQKRNPQTHLKDPDMVWDFWSLRPESLHQVSFLFSDRGIPDGHRHMNGYGSHTFKLVNANGEAVYCKFHYKTDQGIKNLSVEDAARLSQEDPDYGIRDLFNAIATGKYPSWTFYIQVMTFNQAETFPFNPFDLTKVWPHKDYPLIPVGKLVLNRNPVNYFAEVEQIAFDPSNMPPGIEASPDKMLQGRLFAYPDTHRHRLGPNYLHIPVNCPYRARVANYQRDGPMCMQDNQGGAPNYYPNSFGAPEQQPSALEHSIQYSGEVRRFNTANDDNVTQVRAFYVNVLNEEQRKRLCENIAGHLKDAQIFIQKKAVKNFTEVHPDYGSHIQALLDKYNAEKPKNAIHTFVQSGSHLAAREKANL",catalytic potency relative to bovine CAT,5.7 fold
